Assay results reported in PMC7311471, “The iron–sulphur cluster in human DNA2 is required for all biochemical activities of DNA2”.

Assays:
[1] = target: T1, DNA2 D277A (human, UniProt P51530 1-1060, D277A); test: EMSA; similar affinity as WT; EMSA: 25 mM Tris-HCl pH 8.0, 0.1 mg/ml BSA, 5 mM EDTA, with or without 1 mM DTT, 30 min on ice; 4-5 nM FAM-DNA or 1 nM 32P-DNA; settings: protein: recombinant; tags: FLAG; 5' flap 32 nt on strand 1; 1:2 and 2:3 paired
T1 sequence: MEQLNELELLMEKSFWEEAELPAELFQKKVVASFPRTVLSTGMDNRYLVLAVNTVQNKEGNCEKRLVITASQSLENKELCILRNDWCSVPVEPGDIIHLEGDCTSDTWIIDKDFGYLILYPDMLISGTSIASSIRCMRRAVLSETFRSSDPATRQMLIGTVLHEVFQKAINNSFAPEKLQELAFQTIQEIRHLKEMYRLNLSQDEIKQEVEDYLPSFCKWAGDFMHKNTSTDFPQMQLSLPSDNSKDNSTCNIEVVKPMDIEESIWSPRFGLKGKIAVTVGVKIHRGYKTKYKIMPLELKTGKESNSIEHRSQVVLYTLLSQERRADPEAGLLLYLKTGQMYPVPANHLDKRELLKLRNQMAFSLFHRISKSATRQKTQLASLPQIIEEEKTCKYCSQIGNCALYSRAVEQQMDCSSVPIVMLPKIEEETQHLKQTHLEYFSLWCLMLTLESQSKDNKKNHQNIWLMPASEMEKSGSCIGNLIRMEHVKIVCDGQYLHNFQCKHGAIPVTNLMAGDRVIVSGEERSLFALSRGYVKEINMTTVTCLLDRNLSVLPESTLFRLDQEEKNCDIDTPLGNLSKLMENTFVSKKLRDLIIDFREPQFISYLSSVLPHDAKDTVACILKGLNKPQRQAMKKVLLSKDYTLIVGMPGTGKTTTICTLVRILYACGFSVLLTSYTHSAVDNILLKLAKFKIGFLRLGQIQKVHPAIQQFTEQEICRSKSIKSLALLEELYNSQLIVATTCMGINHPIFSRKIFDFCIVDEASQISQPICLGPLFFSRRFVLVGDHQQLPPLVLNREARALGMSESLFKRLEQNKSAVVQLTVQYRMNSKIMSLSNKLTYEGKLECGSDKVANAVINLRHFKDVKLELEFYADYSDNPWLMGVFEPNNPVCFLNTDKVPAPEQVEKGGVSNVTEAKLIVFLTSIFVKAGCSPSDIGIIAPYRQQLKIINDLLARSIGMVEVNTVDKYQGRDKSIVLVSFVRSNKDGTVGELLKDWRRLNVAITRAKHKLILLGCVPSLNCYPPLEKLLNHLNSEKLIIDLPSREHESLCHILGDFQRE

[2] = target: T1, DNA2 D277A; test: EMSA; EMSA: 25 mM Tris-HCl pH 8.0, 0.1 mg/ml BSA, 5 mM EDTA, with or without 1 mM DTT, 30 min on ice; 4-5 nM FAM-DNA or 1 nM 32P-DNA; settings: protein: recombinant; tags: FLAG; label: 3' 32P cordycepin on X04; fork 1:2, 5' arm 32 nt, 3' arm 30 nt

B1: 5' flap (FAM) (mixed)
DNA 1: ATCGATAGTCGGATCCTCTAGACAGCTCCATGTAGCAAGGCACTGGTAGAATTCGGCAGCGT
DNA 2: GACGCTGCCGAATTCTACCAGTGCCTTGCTAGGACATCTTTGCCCACCTGCAGGTTCACCC
DNA 3: TGGGTGAACCTGCAGGTGGGCAAAGATGTCC
[1]
  binding result: binds

B2: Y-structure (32P) (mixed)
DNA 1: B1 DNA 1
DNA 2: B1 DNA 2
[2]
  binding result: binds
